Measured values reported in patent US20180085432A1, “STING (Stimulator of Interferon Genes), A Regulator of Innate Immune Responses” (University of Miami, priority 2008, published 2018).

B1: MEKK1 (enzyme)
chain: NQKCKEKMEAEEEEALAIAMAMSASQDALPIVPQLQVENGEDIIIIQQDTPETLPGHTKAKQPYREDTEWLKGQQIGLGAFSSCYQAQDVGTGTLMAVKQVTYVRNTSSEQEEVVEALREEIRMMSHLNHPNIIRMLGATCEKSNYNLFIEWMAGGSVAHLLSKYGAFKESVVINYTEQLLRGLSYLHENQIIHRDVKGANLLIDSTGQRLRIADFGAAARLASKGTGAGEFQGQLLGTIAFMAPEVLRGQQYGRSCDVWSVGCAIIEMACAKPPWNAEKHSNHLALIFKIASATTAPSIPSHLSPGLRDVALRCLELQPQDRPPSRELLKHPVFRTTW
B2: TBK1 (protein kinase panel) (enzyme)
chain: MQSTSNHLWLLSDILGQGATANVFRGRHKKTGDLFAIKVFNNISFLRPVDVQMREFEVLKKLNHKNIVKLFAIEEETTTRHKVLIMEFCPCGSLYTVLEEPSNAYGLPESEFLIVLRDVVGGMNHLRENGIVHRDIKPGNIMRVIGEDGQSVYKLTDFGAARELEDDEQFVSLYGTEEYLHPDMYERAVLRKDHQKKYGATVDLWSIGVTFYHAATGSLPFRPFEGPRRNKEVMYKIITGKPSGAISGVQKAENGPIDWSGDMPVSCSLSRGLQVLLTPVLANILEADQEKCWGFDQFFAETSDILHRMVIHVFSLQQMTAHKIYIHSYNTATIFHELVYKQTKIISSNQELIYEGRRLVLEPGRLAQHFPKTTEENPIFVVSREPLNTIGLIYEKISLPKVHPRYDLDGDASMAKAITGVVCYACRIASTLLLYQELMRKGIRWLIELIKDDYNETVHKKTEVVITLDFCIRNIEKTVKVYEKLMKINLEAAELGEISDIHTKLLRLSSSQGTIETSLQDIDSRLSPGGSLADAWAHQEGTHPKDRNVEKLQVLLNCMTEIYYQFKKDKAERRLAYNEEQIHKFDKQKLYYHATKAMTHFTDECVKKYEAFLNKSEEWIRKMLHLRKQLLSLTNQCFDIEEEVSKYQEYTNELQETLPQKMFTASSGIKHTMTPIYPSSNTLVEMTLGMKKLKEEMEGVVKELAENNHILERFGSLTMDGGLRNVDCL
B3: NEK2 (enzyme)
chain: MPSRAEDYEVLYTIGTGSYGRCQKIRRKSDGKILVWKELDYGSMTEAEKQMLVSEVNLLRELKHPNIVRYYDRIIDRTNTTLYIVMEYCEGGDLASVITKGTKERQYLDEEFVLRVMTQLTLALKECHRRSDGGHTVLHRDLKPANVFLDGKQNVKLGDFGLARILNHDTSFAKTFVGTPYYMSPEQMNRMSYNEKSDIWSLGCLLYELCALMPPFTAFSQKELAGKIREGKFRRIPYRYSDELNEIITRMLNLKDYHRPSVEEILENPLIADLVADEQRRNLERRGRQLGEPEKSQDSSPVLSELKLKEIQLQERERALKAREERLEQKEQELCVRERLAEDKLARAENLLKNYSLLKERKFLSLASNPELLNLPSSVIKKKVHFSGESKENIMRSENSESQLTSKSKCKDLKKRLHAAQLRAQALSDIEKNYQLKSRQILGMR
B4: IRAK4 (enzyme)
chain: MNKPITPSTYVRCLNVGLIRKLSDFIDPQEGWKKLAVAIKKPSGDDRYNQFHIRRFEALLQTGKSPTSELLFDWGTTNCTVGDLVDLLIQNEFFAPASLLLPDAVPKTANTLPSKEAITVQQKQMPFCDKDRTLMTPVQNLEQSYMPPDSSSPENKSLEVSDTRFHSFSFYELKNVTNNFDERPISVGGNKMGEGGFGVVYKGYVNNTTVAVKKLAAMVDITTEELKQQFDQEIKVMAKCQHENLVELLGFSSDGDDLCLVYVYMPNGSLLDRLSCLDGTPPLSWHMRCKIAQGAANGINFLHENHHIHRDIKSANILLDEAFTAKISDFGLARASEKFAQTVMTSRIVGTTAYMAPEALRGEITPKSDIYSFGVVLLEIITGLPAVDEHREPQLLLDIKEEIEDEEKTIEDYIDKKMNDADSTSVEAMYSVASQCLHEKKNKRPDIKKVQQLLQEMTAS
B5: RIPK5 (enzyme)
chain: SICSQFRTRLNSSHEAFAASLRQLEAGHSGRLEKTEDLWLRVRKDHAPRLARLSLESCSLQDVLLHRKPKLGQELGRGQYGVVYLCDNWGGHFPCALKSVVPPDEKHWNDLALEFHYMRSLPKHERLVDLHGSVIDYNYGGGSSIAVLLIMERLHRDLYTGLKAGLTLETRLQIALDVVEGIRFLHSQGLVHRDIKLKNVLLDKQNRAKITDLGFCKPEAMMSGSIVGTPIHMAPELFTGKYDNSVDVYAFGILFWYICSGSVKLPEAFERCASKDHLWNNVRRGARPERLPVFDEECWQLMEACWDGDPLKRPLLGIVQPMLQGIMNRLCKSNSEQPNRGLDDST
B6: NEK9 (enzyme)
chain: MSVLGEYERHCDSINSDFGSESGGCGDSSPGPSASQGPRAGGGAAEQEELHYIPIRVLGRGAFGEATLYRRTEDDSLVVWKEVDLTRLSEKERRDALNEIVILALLQHDNIIAYYNHFMDNTTLLIELEYCNGGNLYDKILRQKDKLFEEEMVVWYLFQIVSAVSCIHKAGILHRDIKTLNIFLTKANLIKLGDYGLAKKLNSEYSMAETLVGTPYYMSPELCQGVKYNFKSDIWAVGCVIFELLTLKRTFDATNPLNLCVKIVQGIRAMEVDSSQYSLELIQMVHSCLDQDPEQRPTADELLDRPLLRKRRREMEEKVTLLNAPTKRPRSSTVTEAPIAVVTSRTSEVYVWGGGKSTPQKLDVIKSGCSARQVCAGNTHFAVVTVEKELYTWVNMQGGTKLHGQLGHGDKASYRQPKHVEKLQGKAIRQVSCGDDFTVCVTDEGQLYAFGSDYYGCMGVDKVAGPEVLEPMQLNFFLSNPVEQVSCGDNHVVVLTRNKEVYSWGCGEYGRLGLDSEEDYYTPQKVDVPKALIIVAVQCGCDGTFLLTQSGKVLACGLNEFNKLGLNQCMSGIINHEAYHEVPYTTSFTLAKQLSFYKIRTIAPGKTHTAAIDERGRLLTFGCNKCGQLGVGNYKKRLGINLLGGPLGGKQVIRVSCGDEFTIAATDDNHIFAWGNGGNGRLAMTPTERPHGSDICTSWPRPIFGSLHHVPDLSCRGWHTILIVEKVLNSKTIRSNSSGLSIGTVFQSSSPGGGGGGGGGEEEDSQQESETPDPSGGFRGTMEADRGMEGLISPTEAMGNSNGASSSCPGWLRKELENAEFIPMPDSPSPLSAAFSESEKDTLPYEELQGLKVASEAPLEHKPQVEASSPRLNPAVTCAGKGTPLTPPACACSSLQVEVERLQGLVLKCLAEQQKLQQENLQIFTQLQKLNKKLEGGQQVGMHSKGTQTAKEEMEMDPKPDLDSDSWCLLGTDSCRPSL

These molecules were tested against A366 peptide of STING (assay: not given). Conditions: not given.
B1 gave an Activity (cpm), kinase mixed with peptide and 33P-ATP of 11300 cpm.
In the case of B2, the Activity (cpm), kinase mixed with peptide and 33P-ATP is reported as 6600 cpm.
For B3, the Activity (cpm), kinase mixed with peptide and 33P-ATP was 8700 cpm.
B4 was tested, and the Activity (cpm), kinase mixed with peptide and 33P-ATP was 7440 cpm.
With B5 the Activity (cpm), kinase mixed with peptide and 33P-ATP was 1330 cpm.
B6 gave an Activity (cpm), kinase mixed with peptide and 33P-ATP of 6980 cpm.

Each molecule was assayed against S366 peptide of STING (assay: not given). Conditions: not given.
Work on B1 yielded an Activity (cpm), kinase mixed with peptide and 33P-ATP of 24900 cpm.
With B2 the Activity (cpm), kinase mixed with peptide and 33P-ATP was 16700 cpm.
B3 was tested, and the Activity (cpm), kinase mixed with peptide and 33P-ATP was 162000 cpm.
With B4 the Activity (cpm), kinase mixed with peptide and 33P-ATP was 50400 cpm.
Molecule B5 has an Activity (cpm), kinase mixed with peptide and 33P-ATP of 16000 cpm.
B6 was tested, and the Activity (cpm), kinase mixed with peptide and 33P-ATP was 26300 cpm.

What follows are molecules tested on S366 peptide (assay: screening of kinases for S366 of STING (33P-ATP)). Conditions: S366 peptide vs A366 peptide.
Type: biochemical
Experimental: (§1) The activity of 217 protein kinase targets were evaluated against 2 peptides (A366 and S366) as substrate. Protein kinases were mixed with each peptide and ^33P-ATP and then activity (CPM) was measured. The below kinases were identified as phosphorylating S366 in STING. Identification of kinases which target this serine opens up novel avenues for drug discovery. Drugs that target this association may inhibit STING activity and be used for therapeutic purposes to inhibit STING activity. STING over activity may lead to inflammatory diseases which can exacerbate cancer.
For B1, the Fold inducton was 2.20.
In the case of B2, the Fold inducton is reported as 2.52.
B3 gave a Fold inducton of 18.65.
B4 was tested, and the Fold inducton was 6.77.
For B5, the Fold inducton was 12.03.
In the case of B6, the Fold inducton is reported as 3.77.

Same assay, conditions: kinase mixed with peptide and 33P-ATP
For B1, the “Activity, S366 peptide” value was 24866 cpm.
In the case of B2, the “Activity, S366 peptide” value is reported as 16651 cpm.
In the case of B3, the “Activity, S366 peptide” value is reported as 162331 cpm.
In the case of B4, the “Activity, S366 peptide” value is reported as 50353 cpm.
B5 was tested, and the “Activity, S366 peptide” value was 15966 cpm.
In the case of B6, the “Activity, S366 peptide” value is reported as 26284 cpm.

These molecules were tested on A366 peptide (assay: screening of kinases for S366 of STING (33P-ATP)). Conditions: kinase mixed with peptide and 33P-ATP.
Type: biochemical
Experimental: as §1
With B1 the “Activity, A366 peptide” value was 11316 cpm.
With B2 the “Activity, A366 peptide” value was 6603 cpm.
For B3, the “Activity, A366 peptide” value was 8702 cpm.
B4 was tested, and the “Activity, A366 peptide” value was 7435 cpm.
For B5, the “Activity, A366 peptide” value was 1327 cpm.
For B6, the “Activity, A366 peptide” value was 6977 cpm.
